The target in experiment [1] is eGFP-EAAT3. The experiment can be described thus: cell-based or functional assay.
The target of experiment [2] is eGFP-EAAT4. In words: cell-based or functional assay.

Regarding “myc-tagged wildtype β-III spectrin (SP-WT) (from UniProt O15020 2-2390)”, the % of diffraction spots not moving (TIRF microscopy, HEK293 cells) in experiment [1] was 58.7%. Further, in experiment [2], the % of diffraction spots not moving (TIRF microscopy, HEK293 cells) was found to be 94.2% and the diffraction spots moving at or near the membrane (TIRF microscopy, HEK293 cells) stood at 5%.

For “myc-tagged mutant β-III spectrin with the 39 bp American SCA5 deletion (SP-Δ39; p.E532_M544del) (from UniProt O15020 2-2390)”, the % of diffraction spots not moving (TIRF microscopy, HEK293 cells) in experiment [2] was found to be 67.5%.

For the origin of these results see patent US20060286568A1.
